# Assay results taken from the supplement of paper PMC9112550, “Optimization of the antimicrobial peptide Bac7 by deep mutational scanning” (BMC Biology, 2022).
# System: Escherichia coli TOP10
# Assay: shrunken log2 fold change of peptide-encoding DNA abundance (4.5 h post-induction vs induction); higher = less antimicrobial activity (less host growth inhibition)
# Conditions: time post-induction: 4.5 h; library: site-saturation at positions 5, 18, 19, 20
# 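Also: peptides expressed intracellularly from a pBAD plasmid library in pooled LB shake-flask culture, induced with 0.3% L-arabinose, DNA abundance read by NGS, three biological replicates, DESeq2 with apeglm shrinkage.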
row,Sequence,shrunken log2 fold change
1,RRIRFRPPRLPRPRPRPSGLPRP,-0.237
2,RRIRVRPPRLPRPRPRPNGLPRP,-0.0536
3,RRIRDRPPRLPRPRPRPWHWPRP,0.00118
4,RRIRSRPPRLPRPRPRPWNPPRP,-0.00281
5,RRIRARPPRLPRPRPRPKHTPRP,0.264
6,RRIRPRPPRLPRPRPRPLWCPRP,-0.158
7,RRIRYRPPRLPRPRPRPGQRPRP,0.212
8,RRIRGRPPRLPRPRPRPRPPPRP,1.19
9,RRIRLRPPRLPRPRPRPHTYPRP,-0.257
10,RRIRARPPRLPRPRPRPDQYPRP,0.151
11,RRIRDRPPRLPRPRPRPHHEPRP,0.0131
12,RRIRCRPPRLPRPRPRPSMAPRP,-0.224
13,RRIRARPPRLPRPRPRPAQKPRP,0.0505
14,RRIRRRPPRLPRPRPRPSHWPRP,0.183
15,RRIRHRPPRLPRPRPRPNYKPRP,-0.603
16,RRIRSRPPRLPRPRPRPWHMPRP,0.17
17,RRIRFRPPRLPRPRPRPQDGPRP,0.0293
18,RRIRLRPPRLPRPRPRPTLWPRP,0.284
19,RRIRLRPPRLPRPRPRPPQDPRP,0.348
20,RRIRDRPPRLPRPRPRPYAGPRP,0.0325
21,RRIRSRPPRLPRPRPRPYWWPRP,-0.231
22,RRIRGRPPRLPRPRPRPGNYPRP,-0.0899
23,RRIRLRPPRLPRPRPRPCRCPRP,0.00318
24,RRIRCRPPRLPRPRPRPVWEPRP,0.176
25,RRIRDRPPRLPRPRPRPPRSPRP,1.11

row,Sequence,shrunken log2 fold change
1,RRIRGRPPRLPRPRPRPCMYPRP,0.013
2,RRIRLRPPRLPRPRPRPAAMPRP,0.158
3,RRIRFRPPRLPRPRPRPTKAPRP,0.0916
4,RRIRMRPPRLPRPRPRPMWVPRP,0.0332
5,RRIRNRPPRLPRPRPRPCMLPRP,-0.306
6,RRIRMRPPRLPRPRPRPPMCPRP,0.293
7,RRIRMRPPRLPRPRPRPNYWPRP,-0.0168
8,RRIRQRPPRLPRPRPRPSEGPRP,0.0871
9,RRIRKRPPRLPRPRPRPIDFPRP,0.131
10,RRIRLRPPRLPRPRPRPVSMPRP,-0.302
11,RRIRKRPPRLPRPRPRPCWCPRP,-0.0214
12,RRIRLRPPRLPRPRPRPRTVPRP,1.24
13,RRIRTRPPRLPRPRPRPNKAPRP,-0.0944
14,RRIRRRPPRLPRPRPRPQWMPRP,0.139
15,RRIRTRPPRLPRPRPRPRARPRP,0.63
16,RRIRSRPPRLPRPRPRPHDIPRP,-0.0108
17,RRIRKRPPRLPRPRPRPHFAPRP,0.336
18,RRIRVRPPRLPRPRPRPHILPRP,-0.234
19,RRIRIRPPRLPRPRPRPEPCPRP,-0.057
20,RRIRARPPRLPRPRPRPMWMPRP,0.0208
21,RRIRYRPPRLPRPRPRPLIAPRP,-0.668
22,RRIRARPPRLPRPRPRPCADPRP,0.734
23,RRIRMRPPRLPRPRPRPQDKPRP,0.132
24,RRIRVRPPRLPRPRPRPPHHPRP,0.0413
25,RRIRVRPPRLPRPRPRPTAAPRP,0.09

row,Sequence,shrunken log2 fold change
1,RRIRNRPPRLPRPRPRPHPQPRP,-0.106
2,RRIRIRPPRLPRPRPRPYGSPRP,-0.126
3,RRIRNRPPRLPRPRPRPHVMPRP,-0.503
4,RRIRYRPPRLPRPRPRPPCLPRP,-0.288
5,RRIRKRPPRLPRPRPRPFKTPRP,0.427
6,RRIRWRPPRLPRPRPRPANNPRP,-0.205
7,RRIRSRPPRLPRPRPRPWFKPRP,-0.504
8,RRIRWRPPRLPRPRPRPYEGPRP,-0.874
9,RRIRARPPRLPRPRPRPQWVPRP,0.124
10,RRIRRRPPRLPRPRPRPLVHPRP,0.223
11,RRIRYRPPRLPRPRPRPQAPPRP,-0.0309
12,RRIRSRPPRLPRPRPRPHPSPRP,0.0251
13,RRIRLRPPRLPRPRPRPVMRPRP,0.076
14,RRIRRRPPRLPRPRPRPKQTPRP,0.186
15,RRIRARPPRLPRPRPRPRWCPRP,0.0438
16,RRIRYRPPRLPRPRPRPGTWPRP,0.585
17,RRIRMRPPRLPRPRPRPSECPRP,0.0809
18,RRIRMRPPRLPRPRPRPWWVPRP,-0.129
19,RRIRGRPPRLPRPRPRPLHHPRP,0.452
20,RRIRTRPPRLPRPRPRPGCGPRP,0.385
21,RRIRDRPPRLPRPRPRPYKGPRP,-0.00133
22,RRIRIRPPRLPRPRPRPNESPRP,-0.243
23,RRIRIRPPRLPRPRPRPTAAPRP,0.116
24,RRIRERPPRLPRPRPRPNLKPRP,-0.56
25,RRIRPRPPRLPRPRPRPDMRPRP,0.861

row,Sequence,shrunken log2 fold change
1,RRIRFRPPRLPRPRPRPTYFPRP,-0.175
2,RRIRGRPPRLPRPRPRPNQMPRP,1.6
3,RRIRWRPPRLPRPRPRPCAWPRP,0.0191
4,RRIRYRPPRLPRPRPRPAMKPRP,-0.000923
5,RRIRLRPPRLPRPRPRPRMEPRP,0.123
6,RRIRLRPPRLPRPRPRPSRDPRP,0.152
7,RRIRRRPPRLPRPRPRPFLGPRP,0.187
8,RRIRRRPPRLPRPRPRPKDDPRP,0.302
9,RRIRKRPPRLPRPRPRPLSNPRP,0.436
10,RRIRMRPPRLPRPRPRPNVWPRP,0.303
11,RRIRRRPPRLPRPRPRPRWSPRP,0.498
12,RRIRKRPPRLPRPRPRPGTMPRP,0.0526
13,RRIRCRPPRLPRPRPRPYVGPRP,-0.163
14,RRIRTRPPRLPRPRPRPQCCPRP,-0.0803
15,RRIRARPPRLPRPRPRPSPHPRP,0.187
16,RRIRPRPPRLPRPRPRPPVIPRP,0.332
17,RRIRCRPPRLPRPRPRPLLKPRP,-0.185
18,RRIRFRPPRLPRPRPRPLKLPRP,-0.147
19,RRIRVRPPRLPRPRPRPFENPRP,-0.0486
20,RRIRNRPPRLPRPRPRPVMPPRP,0.267
21,RRIRFRPPRLPRPRPRPFQEPRP,-0.00353
22,RRIRARPPRLPRPRPRPKDIPRP,-0.00725
23,RRIRWRPPRLPRPRPRPNDVPRP,-0.0909
24,RRIRFRPPRLPRPRPRPTAVPRP,0.117
25,RRIRIRPPRLPRPRPRPVCAPRP,-0.0399

row,Sequence,shrunken log2 fold change
1,RRIRIRPPRLPRPRPRPYMGPRP,-0.579
2,RRIRARPPRLPRPRPRPPCSPRP,0.752
3,RRIRMRPPRLPRPRPRPGVPPRP,0.671
4,RRIRVRPPRLPRPRPRPCNAPRP,-0.184
5,RRIRKRPPRLPRPRPRPGTWPRP,0.315
6,RRIRTRPPRLPRPRPRPYRVPRP,0.0325
7,RRIRARPPRLPRPRPRPQGKPRP,0.128
8,RRIRMRPPRLPRPRPRPTKIPRP,0.318
9,RRIRHRPPRLPRPRPRPLKHPRP,-0.869
10,RRIRRRPPRLPRPRPRPPNDPRP,0.605
11,RRIRARPPRLPRPRPRPWMKPRP,-0.172
12,RRIRCRPPRLPRPRPRPDNFPRP,-0.489
13,RRIRWRPPRLPRPRPRPMKSPRP,0.252
14,RRIRGRPPRLPRPRPRPVHDPRP,-0.0619
15,RRIRSRPPRLPRPRPRPHMLPRP,-0.104
16,RRIRHRPPRLPRPRPRPCFMPRP,-0.404
17,RRIRIRPPRLPRPRPRPNQWPRP,-0.422
18,RRIRARPPRLPRPRPRPQTDPRP,0.275
19,RRIRGRPPRLPRPRPRPCNCPRP,0.155
20,RRIRGRPPRLPRPRPRPWKSPRP,-0.207
21,RRIRSRPPRLPRPRPRPNGDPRP,-0.0155
22,RRIRWRPPRLPRPRPRPVCCPRP,0.469
23,RRIRKRPPRLPRPRPRPFDPPRP,-0.145
24,RRIRIRPPRLPRPRPRPKHQPRP,-0.495
25,RRIRYRPPRLPRPRPRPFTSPRP,-0.0993

row,Sequence,shrunken log2 fold change
1,RRIRPRPPRLPRPRPRPQMSPRP,0.0674
2,RRIRARPPRLPRPRPRPNAIPRP,0.201
3,RRIRVRPPRLPRPRPRPLFVPRP,-0.175
4,RRIRARPPRLPRPRPRPGRKPRP,0.43
5,RRIRERPPRLPRPRPRPSKTPRP,-0.0833
6,RRIRFRPPRLPRPRPRPVHVPRP,-0.191
7,RRIRARPPRLPRPRPRPQCRPRP,-0.161
8,RRIRVRPPRLPRPRPRPRQPPRP,0.284
9,RRIRQRPPRLPRPRPRPCEEPRP,-0.0216
10,RRIRHRPPRLPRPRPRPSLCPRP,-0.0468
11,RRIRCRPPRLPRPRPRPEHGPRP,0.11
12,RRIRSRPPRLPRPRPRPAKMPRP,-0.0464
13,RRIRFRPPRLPRPRPRPFDNPRP,-0.31
14,RRIRERPPRLPRPRPRPKVKPRP,0.0263
15,RRIRCRPPRLPRPRPRPNWAPRP,-0.336
16,RRIRYRPPRLPRPRPRPSHQPRP,-0.594
17,RRIRFRPPRLPRPRPRPYCSPRP,-0.206
18,RRIRWRPPRLPRPRPRPYWYPRP,-1.33
19,RRIRERPPRLPRPRPRPLYLPRP,-0.77
20,RRIRKRPPRLPRPRPRPHYAPRP,-0.0144
21,RRIRCRPPRLPRPRPRPLDIPRP,-0.422
22,RRIRERPPRLPRPRPRPTFHPRP,-0.0533
23,RRIRMRPPRLPRPRPRPCLTPRP,0.000866
24,RRIRHRPPRLPRPRPRPDKPPRP,-0.0375
25,RRIRQRPPRLPRPRPRPRACPRP,0.344
